In US20150104457A1 (OREGA BIOTECH, published 2015):
Where “and” joins values, the source holds several entries; their conditions need not be identical. Equal values may be shown once.

T1: recombinant human IL-17A (human, UniProt Q16552 24-155)
T1 construct: also called CTLA-8; IL-17A/A homodimer
T1 sequence: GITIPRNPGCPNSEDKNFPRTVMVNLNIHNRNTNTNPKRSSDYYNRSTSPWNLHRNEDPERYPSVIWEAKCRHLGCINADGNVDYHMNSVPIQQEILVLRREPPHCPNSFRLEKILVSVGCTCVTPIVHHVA

T2: recombinant human IL-17A/F (heterodimer) (human, UniProt Q16552 24-155; Q96PD4 31-163)
T2 sequence 1: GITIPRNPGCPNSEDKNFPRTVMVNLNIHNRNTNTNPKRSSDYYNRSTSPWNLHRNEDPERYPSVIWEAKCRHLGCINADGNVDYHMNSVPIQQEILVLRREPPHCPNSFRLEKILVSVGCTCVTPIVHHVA
T2 sequence 2: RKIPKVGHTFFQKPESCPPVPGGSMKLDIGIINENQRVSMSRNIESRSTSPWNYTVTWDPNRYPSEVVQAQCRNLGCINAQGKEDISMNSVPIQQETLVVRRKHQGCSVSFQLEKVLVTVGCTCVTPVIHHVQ


Experiments:
recombinant human IL-17A [1] = target: T1, recombinant human IL-17A; assay: competitive ELISA in solution (method of Friguet et al.)
Protocol: (§1) For this determination a competitive ELISA with the various isoforms was performed.
(§2) Appropriate concentrations of the respective antigens and monoclonal antibodies were mixed in assay buffer and incubated overnight with continuous shaking at room temperature. The same monoclonal antibodies in the same concentration, but without antigen were used as positive reference (100% value). Pre-incubated antibodies were added to the plates. The plates were incubated with continuous shaking and washed 4× with 250 μL/well TBS-TRP.

[2] = target: T2, recombinant human IL-17A/F (heterodimer); assay: as above
Protocol: as §1, §2

recombinant human IL-17A [3] = target: T1, recombinant human IL-17A; assay: cell-based or functional assay
[4] = target: T2, recombinant human IL-17A/F (heterodimer); assay: cell-based or functional assay

Binder	Ka (recombinant human IL-17A [1]) [M⁻¹]	Kd (recombinant human IL-17A [1]) [nM]	Ka [2] [M⁻¹]	Kd [2] [nM]	IC50, neutralization of IL-6 production in normal human dermal fibroblasts (recombinant human IL-17A [3])	IC50, neutralization of IL-6 production in normal human dermal fibroblasts [4]
OREG-210 (antibody, V domains shown, also called mAb OREG-210; Ab OREG-210) VH: QVQLKESGPDLVAPSQSLSITCTVSGFSLTSYGIHWVRQPPGKGLEWLVVIWSDGTTTYNSALKSRLSISKDNSKSQVFLKMNSLQTDDTAMYYCASSYDYLYHYTMDYWGQGTSVTVSS VL: DVVMTQTPLSLPVSLGDQASISCRSSQSLVHSNGNTYFHWYLQKPGQSPKLLIYKVSNRFSGVPDRFSGSGSGTDFTLKISRVEAEDLGVYFCSQSTHVPLTFGAGTNLELK	6.4e+08	1.56	3.4e+08	2.94	110 ng/ml and 0.74 nM	167 ng/ml and 1.1 nM
Fab fragment of OREG-210 (Fab, V domains shown) VH: QVQLKESGPDLVAPSQSLSITCTVSGFSLTSYGIHWVRQPPGKGLEWLVVIWSDGTTTYNSALKSRLSISKDNSKSQVFLKMNSLQTDDTAMYYCASSYDYLYHYTMDYWGQGTSVTVSS VL: DVVMTQTPLSLPVSLGDQASISCRSSQSLVHSNGNTYFHWYLQKPGQSPKLLIYKVSNRFSGVPDRFSGSGSGTDFTLKISRVEAEDLGVYFCSQSTHVPLTFGAGTNLELK					1120 ng/ml and 22.4 nM	605 ng/ml and 12.1 nM
F(ab')2 fragment of OREG-210 (other) VH: QVQLKESGPDLVAPSQSLSITCTVSGFSLTSYGIHWVRQPPGKGLEWLVVIWSDGTTTYNSALKSRLSISKDNSKSQVFLKMNSLQTDDTAMYYCASSYDYLYHYTMDYWGQGTSVTVSS VL: DVVMTQTPLSLPVSLGDQASISCRSSQSLVHSNGNTYFHWYLQKPGQSPKLLIYKVSNRFSGVPDRFSGSGSGTDFTLKISRVEAEDLGVYFCSQSTHVPLTFGAGTNLELK					1050 ng/ml and 10.5 nM	1160 ng/ml and 11.6 nM
OREG-203 (antibody, V domains shown, also called mAb OREG-203; Ab OREG-203) VH: QAQLQQSGAELVKPGASVKMSCKAFGYTFTTFPIEWMKQNHGKSLEWIGNFHPYNDYTKYNEKFKGKAKLTVEKSSRTVYLELSRLTSDDSAVYYCARGAYYGDYVSHTMDFWGQGTSVTVSS VL: NIVLTQSPASLAVSLGQRATISCRASESVDSYGNSFMHWYQQKPGQPPKLLIYLASNLESGVPARFSGSGSRTDFTLTIDPVEADDAAIYYCQQNNEDPLTFGAGTKLELK	1.4e+09	0.714	1e+09	1	115 ng/ml and 0.76 nM	30.2 ng/ml and 0.2 nM

Now from value to binder:

Ka (recombinant human IL-17A [1]) [M⁻¹]	Kd (recombinant human IL-17A [1]) [nM]	Ka [2] [M⁻¹]	Kd [2] [nM]	IC50, neutralization of IL-6 production in normal human dermal fibroblasts (recombinant human IL-17A [3])	IC50, neutralization of IL-6 production in normal human dermal fibroblasts [4]	Binder
				75.9 ng/ml and 1.52 nM	15.3 ng/ml and 0.306 nM	Fab fragment of OREG-203 (Fab, V domains shown) VH: QAQLQQSGAELVKPGASVKMSCKAFGYTFTTFPIEWMKQNHGKSLEWIGNFHPYNDYTKYNEKFKGKAKLTVEKSSRTVYLELSRLTSDDSAVYYCARGAYYGDYVSHTMDFWGQGTSVTVSS VL: NIVLTQSPASLAVSLGQRATISCRASESVDSYGNSFMHWYQQKPGQPPKLLIYLASNLESGVPARFSGSGSRTDFTLTIDPVEADDAAIYYCQQNNEDPLTFGAGTKLELK
1.54e+09	0.649	2.67e+09	0.375	96.5 ng/ml and 0.64 nM	40.1 ng/ml and 0.26 nM	OREG-207 (antibody, V domains shown, also called mAb OREG-207; Ab OREG-207) VH: QAQLQQSGAELVKPGASVKMSCKAFGYTFTTFPIEWMKQNHGKSLEWIGNFHPYNDYTKYNEKFKGKAKLTVEKSSSTVYLELSRLTSDDSAVYYCARGAYYGDYVSHTMDFWGQGTSVTVSS VL: NIVLTQSPASLAVSLGQRATISCRASESVDSYGNSFMHWYQQKPGQPPKLLIYLASNLESGVPARFSGSGSRTDFTLTIDPVEADDAAIYYCQQNNEDPLTFGAGTKLELK
